The values below come from publication PMC10950897 (2024).

In this assay the target is His6-p97 WT (human, UniProt P55072 1-806). The assay is described as follows: SPR. (SPR reads the build-up and loss of mass on a sensor chip optically.)
Sequence of His6-p97 WT (P55072 whole entry): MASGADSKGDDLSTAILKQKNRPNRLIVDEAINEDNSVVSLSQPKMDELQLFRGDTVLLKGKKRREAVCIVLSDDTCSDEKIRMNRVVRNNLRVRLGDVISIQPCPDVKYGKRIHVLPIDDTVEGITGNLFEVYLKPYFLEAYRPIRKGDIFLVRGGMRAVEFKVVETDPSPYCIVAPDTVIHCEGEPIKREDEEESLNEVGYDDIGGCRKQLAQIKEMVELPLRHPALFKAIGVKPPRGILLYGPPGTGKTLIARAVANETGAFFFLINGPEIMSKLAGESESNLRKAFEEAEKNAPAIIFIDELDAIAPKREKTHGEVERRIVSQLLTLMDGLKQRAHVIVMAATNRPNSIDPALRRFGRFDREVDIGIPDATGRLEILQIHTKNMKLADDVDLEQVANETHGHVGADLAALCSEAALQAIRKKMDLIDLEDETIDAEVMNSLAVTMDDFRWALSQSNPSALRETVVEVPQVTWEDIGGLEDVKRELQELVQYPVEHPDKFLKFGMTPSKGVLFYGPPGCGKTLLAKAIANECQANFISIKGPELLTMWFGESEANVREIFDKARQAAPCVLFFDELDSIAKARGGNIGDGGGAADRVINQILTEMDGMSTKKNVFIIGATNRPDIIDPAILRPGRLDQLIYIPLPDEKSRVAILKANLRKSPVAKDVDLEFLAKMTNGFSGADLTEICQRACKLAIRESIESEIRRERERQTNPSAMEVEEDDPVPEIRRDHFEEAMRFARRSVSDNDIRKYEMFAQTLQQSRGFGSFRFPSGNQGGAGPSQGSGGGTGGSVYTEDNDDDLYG

B1: Strep-HA-VCF1 WT (natural protein)
chain: not shown
The term Kd denotes the constant that tells how readily two partners part at equilibrium. Lower therefore signals tighter binding. B1 came in with a Kd of 10.9 nM.
